PMC8188212, “Multi‐Arm PEG/Peptidomimetic Conjugate Inhibitors of DR6/APP Interaction Block Hematogenous Tumor Cell Extravasation” (Advanced Science, 2021)
Entries after “also recorded” stand apart in the source; their conditions may differ. Square brackets hold non-standard residues; d marks the D form. Side chains are listed from the residue outwards. Ends that are not written are not given here. maleimide = maleimide: 4-arm PEG5k maleimide reacting with the C-terminal Cys thiol

Experiments:
[1] = biological target: T1, DR6/APP interaction (B16F10, SGC-996, LLC1 TCs on DR6 protein coated plates) (Homo sapiens, UniProt O75509); assay: Cell attachment of TCs to DR6-coated plates; assay type: cell-based; details: 1 h at 37 °C, crystal violet, microplate reader, n = 3
T1 construct: His tag (inferred from RED-tris-NTA labelling of the same purchased protein in the MST assay); purchased Sino Biology, Inc. (Shanghai, China); host or cells: DR6 coated on 96-well plates; tumour cells B16F10, SGC-996, LLC1 carry endogenous APP
T1 sequence (O75509 42-349 limits assumed): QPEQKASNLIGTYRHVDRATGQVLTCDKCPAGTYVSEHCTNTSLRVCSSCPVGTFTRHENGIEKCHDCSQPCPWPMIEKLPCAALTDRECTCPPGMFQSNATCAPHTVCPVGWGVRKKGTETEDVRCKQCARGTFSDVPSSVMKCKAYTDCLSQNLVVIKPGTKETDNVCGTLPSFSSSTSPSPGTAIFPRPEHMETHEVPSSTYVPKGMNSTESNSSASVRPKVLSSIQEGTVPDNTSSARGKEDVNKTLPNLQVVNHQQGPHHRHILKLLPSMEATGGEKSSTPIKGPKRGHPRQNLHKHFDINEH
Experimental: DR6 protein in 50 µL PBS (50 × 10^–9 M) was added into 96‐well plates. The 96‐well plates were incubated for 2 h at 37 °C, followed by drying overnight at 4 °C. Next day, the 96‐well plates were warmly washed three times with PBS, and then blocked by PBS containing 1% BSA for 1 h at 37 °C. The plates were washed three times with PBS. TCs were suspended in serum‐free DMEM at a density of 3 × 10^5 cells mL^–1; 50 µL of the cell suspension was added to wells coated with the DR6‐targeting peptides. Different concentrations of DR6‐targeting peptides or PBS were added into the plates. After incubation at 37 °C for 1 h, non‐adherent cells were gently washed away with PBS, fixed with 4% paraformaldehyde at room temperature for 30 min, washed, stained with 5% crystal violet 50 µL per well for 10 min, gently washed with PBS, and decolorized with 33% acetic acid. The attachment cell number was measured by a microplate reader.^[ ^53 ^]

[2] = tested on: HUVECs; assay: Co-culture of TCs and HUVECs, TC-induced HUVECs necroptosis; assay type: cell-based, human; details: co-culture with GFP-B16F10, GFP-SGC-996, GFP-LLC1 for 24 h; peptides 1 × 10^–6 M; Hoechst 33342/EthD-III staining; n = 3
Experimental: For co‐culture experiment, HUVECs (1 × 10^5) were cultured for 24 h in six‐well plates and 5 × 10^4 GFP‐expressing TCs (GFP‐B16F10, GFP‐SGC‐996, and GFP‐LLC1) were added alone or in the presence of the indicated substances onto the HUVECs monolayer and cultured for 24 h: peptides (1 × 10^–6 M), Nec‐1 (30 × 10^–6 M), and zVAD (100 × 10^–6 M). Then, cells were stained with Hoechst 33342 and EthD‐III, and observed by fluorescence microscope. Cell number was determined by counting Hoechst‐33342‐positive cells, and cell death was determined by counting EthD‐III‐positive nuclei.^[ ^9 ^]

[3] = DAPI staining of lung sections after injection of FITC-labeled ligand; assay type: in vivo; details: FITC-labeled ligand intravenously, lungs isolated 30 min later, confocal
Experimental: FITC‐labeled AHP‐DRI‐12 and PEG‐tAHP‐DRI were injected intravenously and 30 min later, lungs were isolated to prepare frozen sections. The frozen sections were stained with DAPI. The representative images were taken on a confocal microscope.

[4] = tested on: TCs over HUVECs monolayer; assay: Transendothelial migration of TCs over HUVEC monolayer; assay type: cell-based, human; details: AHP-DRI-12 and PEG-tAHP-DRI 1 × 10^−6 M (AHP-DRI-12), Nec-1 30 × 10^–6 M, zVAD 100 × 10^–6 M; 48 h; compared with control; n = 3
Experimental: HUVECs (1 × 10^5) in DMEM were added into 24‐well plate transwell upper chambers and the medium was changed every 2 days. Using the EVOM resistance tester, the transendothelial resistance was measured daily. When the TEER resistance value was >200 Ωcm^2, the cells grew into a monolayer of tight connection. 2 × 10^5 GFP‐TCs were added into upper chambers. One milliliter DMEM containing 10% FBS was added into lower chambers overnight. AHP‐DRI‐12 and PEG‐tAHP‐DRI (1 ×10^–6 M AHP‐DRI‐12), Nec‐1 (30 × 10^–6 M), and zVAD (100 × 10^–6 M) were added in upper chambers, respectively. After incubation for 48 h, cells in lower chambers were observed by fluorescence microscope.^[ ^56 ^]

[5] = Pharmacokinetic study after intravenous injection; assay type: in vivo; details: SD rats, FITC-labeled
Experimental: To investigate the pharmacokinetic profile of AHP‐DRI‐12 and PEG‐tAHP‐DRI, SD rats were intravenously injected with FITC‐labeled AHP‐DRI‐12 and PEG‐tAHP‐DRI and blood samples were collected at 0.5, 1, 2, 4, 6, 24, 30, 48, 54, and 72 h. The DR6‐targeting peptide level of blood samples was measured by a microplate reader.

[6] = tested on: 4T1 orthotopic tumor model; assay: Spontaneous lung metastasis of 4T1 orthotopic breast tumor model; assay type: in vivo, Balb/c female mice; details: intravenous, 0.2 µg g^–1 AHP-DRI-12, every 2 days, 14 times; sacrificed day 30
Experimental: The spontaneous lung metastasis of orthotopic breast tumor model was established via injection of 4T1 cells into the fourth inguinal mammary gland of Balb/c female mice. The mice were intravenously injected with saline, AHP‐DRI‐12, and PEG‐tAHP‐DRI (0.2 µg g^–1 AHP‐DRI‐12), respectively, every 2 days for total of 14 times. Mice were sacrificed on day 30 and their lungs were collected for observation and histological analysis.

[7] = tested on: RIPK1, RIPK3, MLKL and their phosphorylated states in HUVECs; assay: Western blot of necroptosis pathway proteins; assay type: cell-based, human; details: 24 h, 0.1, 1.0, 10 × 10^–6 M AHP-DRI-12
Experimental: Western blot assay was conducted to examine the expression level of RIPK1, RIPK3, MLKL, and their phosphorylated states that were downstream protein of DR6. Briefly, 5 × 10^5 HUVECs were added in six‐well plates and grown overnight. Next day, HUVECs were treated with TSZ, AHP‐DRI‐12, and PEG‐tAHP‐DRI (0.1 × 10^–6, 1.0 × 10^–6, 10 × 10^–6 M AHP‐DRI‐12), respectively. After incubating for 24 h, HUVECs were washed with PBS, harvested, and mixed with 150 µL cell lysate buffer/well (Beyotime, China). Protein samples were collected after incubation at 4 ℃ for 30 min. Protein samples were centrifuged at 4 °C and 12 000 rpm for 10 min, and the supernatant was collected as samples. Each sample was then separated by 12% SDS–PAGE, followed by transferring to polyvinylidene difluoride membranes. Finally, samples were incubated with antibodies. HRP‐labeled secondary antibodies were added and measured using an imaging system.

PEG-tAHP-DRI: tetra-(D-retro-inverso isomer of AHP-12) substitued 4-arm PEG5k ([dP][dT][dT][dA][dD][dI][dT]C([maleimide-4‑arm PEG5k]); also: four peptides on one 4-arm PEG5k)
disruption of attachment between TCs and DR6-coated plates [1]: most obvious disruption of attachment
inhibition of TCs-induced HUVECs necroptosis [2]: strongest potent inhibitory effect on HUVECs necroptosis; also recorded: much less amount of necroptotic HUVECs
binding potency and proteolytic stability in vivo by FITC fluorescence on lung frozen sections [3]: best proteolytic stability
TCs transendothelial migration [4]: significantly attenuated TCs transendothelial migration
half-life (T1/2) ([5]; blood samples 0.5-72 h, microplate reader, n = 3): 11.1 h
area under the curve (AUC0-72) ([5]; compared with AHP-DRI-12): significantly larger
spontaneous metastasis to lungs [6]: efficiently restrain spontaneous metastasis to lungs
native activation of necroptosis pathway (expression levels of p-RIPK1, p-RIPK3, p-MLKL) [7]: could not initialize necroptosis pathway
